Among the data in patent publication US20230374147A1 are BCMA:APRIL 1:1 response values, retold here.

The target of this assay is BCMA:APRIL 1:1 (human) (UniProt Q02223). The experiment in a line: BLI, His-tagged human BCMA on tip, then human APRIL 3000 nM, then IgG; KD cell N/A, R2 0.0887. Background: In BLI a coated tip is dipped into the sample, and binding shifts an interference pattern.
Sequence of BCMA:APRIL 1:1 (human) (Q02223 1-54 limits assumed, chain 1 of 2): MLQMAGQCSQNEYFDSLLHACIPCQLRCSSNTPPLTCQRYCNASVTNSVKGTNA
Sequence of BCMA:APRIL 1:1 (human) (O75888 115-250 limits assumed, chain 2 of 2, further chain): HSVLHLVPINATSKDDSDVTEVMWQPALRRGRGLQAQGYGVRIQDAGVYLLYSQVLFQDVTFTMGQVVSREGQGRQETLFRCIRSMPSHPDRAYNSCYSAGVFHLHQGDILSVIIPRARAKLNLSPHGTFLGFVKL

On to J6M0 (antibody), for which the BCMA:APRIL 1:1 response came out at 0.18.
